In patent US20230241168A1 (ALPINE IMMUNE SCIENCES, published 2023):

Legend:
recombinant human BAFF = recombinant human BAFF (human, UniProt Q9Y275 134-285); test: cell-based or functional assay
recombinant human APRIL = molecular target: T1, recombinant human APRIL (human, UniProt O75888 105-250, limits assumed); test: cell-based or functional assay
T1 sequence (looked up): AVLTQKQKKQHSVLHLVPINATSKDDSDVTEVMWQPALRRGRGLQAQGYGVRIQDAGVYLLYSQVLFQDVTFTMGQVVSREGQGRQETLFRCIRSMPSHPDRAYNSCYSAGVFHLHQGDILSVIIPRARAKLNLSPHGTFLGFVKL

B1: TACI 516 (G4S)3 CTLA 4 668 (other)
chain: VAMRSCPEEQYWDPLLGTCMSCKTICNHQSQRTCAAFCRSLSCRKEQGKFYDHLLRDCISCASICGQHPKQCAYFCENKLRSGGGGSGGGGSGGGGSKAMHVAQPAVVLASSRGIASFVCEYASPGKATEVRVTVLRQADSQVTEVCAATYMMGNELTFLDDSICTGTSSGNQVNLTIQGLRAMDTGLYICKVELMYPPPYYLGIGNGTQIYVIDPEPSPDSDQDYKDDDDKHHHHHH
IC50 (nM) BAFF (recombinant human BAFF): 8.75 nM
IC50 BAFF (Δ Parental vTD) (recombinant human BAFF): 3.4 ratio

B2: Fc (G4S)2 BCMA (356) (Fc fusion)
chain: EPKSSDKTHTCPPCPAPEAEGAPSVFLFPPKPKDTLMISRTPEVTCVVVDVSHEDPEVKFNWYVDGVEVHNAKTKPREEQYNSTYRVVSVLTVLHQDWLNGKEYKCKVSNKALPAPIEKTISKAKGQPREPQVYTLPPSRDELTKNQVSLTCLVKGFYPSDIAVEWESNGQPENNYKTTPPVLDSDGSFFLYSKLTVDKSRWQQGNVFSCSVMHEALHNHYTQKSLSLSPGGGGGSGGGGSLQMAGQCSQNEYFDSLLHACIPCQLRCSSNTPPLTCQRYCNASVTNSVKGTNA
IC50 (nM) BAFF (recombinant human BAFF): 42.7 nM
IC50 BAFF (Δ Parental vTD) (recombinant human BAFF): 1 ratio
IC50 (nM) APRIL (recombinant human APRIL): 42.7 nM
IC50 APRIL (Δ Parental vTD) (recombinant human APRIL): 1 ratio

B3: Fc (G4S)2 BCMA (357) (Fc fusion)
chain: EPKSSDKTHTCPPCPAPEAEGAPSVFLFPPKPKDTLMISRTPEVTCVVVDVSHEDPEVKFNWYVDGVEVHNAKTKPREEQYNSTYRVVSVLTVLHQDWLNGKEYKCKVSNKALPAPIEKTISKAKGQPREPQVYTLPPSRDELTKNQVSLTCLVKGFYPSDIAVEWESNGQPENNYKTTPPVLDSDGSFFLYSKLTVDKSRWQQGNVFSCSVMHEALHNHYTQKSLSLSPGGGGGSGGGGSLQMAGQCSQNEYFDSLLYACIPCQLRCSSNTPPLTCQRYCNASVTNSVKGTNA
IC50 (nM) BAFF (recombinant human BAFF): 5.44 nM
IC50 BAFF (Δ Parental vTD) (recombinant human BAFF): 1 ratio
IC50 (nM) APRIL (recombinant human APRIL): 0.696 nM
IC50 APRIL (Δ Parental vTD) (recombinant human APRIL): 1 ratio

B4: CTLA-4 165 GSG4S Fc (G4S)2 BCMA 356 (Fc fusion)
chain: KAMHVAQPAVVLASSRGIASFVCEYASPGKATEVRVTVLRQADSQVTEVCAASYMMGNELTFPDDSICTGTSSGNQVNLTIQGLRAMDTGLYICKVEQMYPPPYYLGIGNGTQIYVIDPEPCPDSDGSGGGGSEPKSSDKTHTCPPCPAPEAEGAPSVFLFPPKPKDTLMISRTPEVTCVVVDVSHEDPEVKFNWYVDGVEVHNAKTKPREEQYNSTYRVVSVLTVLHQDWLNGKEYKCKVSNKALPAPIEKTISKAKGQPREPQVYTLPPSRDELTKNQVSLTCLVKGFYPSDIAVEWESNGQPENNYKTTPPVLDSDGSFFLYSKLTVDKSRWQQGNVFSCSVMHEALHNHYTQKSLSLSPGGGGGSGGGGSLQMAGQCSQNEYFDSLLHACIPCQLRCSSNTPPLTCQRYCNASVTNSVKGTNA
IC50 (nM) BAFF (recombinant human BAFF): 36.8 nM
IC50 BAFF (Δ Parental vTD) (recombinant human BAFF): 0.9 ratio
IC50 (nM) APRIL (recombinant human APRIL): 0.894 nM
IC50 APRIL (Δ Parental vTD) (recombinant human APRIL): 0 ratio

B5: CTLA-4 92 GSG4S Fc (G4S)2 BCMA 356 (Fc fusion)
chain: KAMHVAQPAVVLASSRGIASFVCEYASPWKATEVRVTVLRQADSQVTEVCAATYMMGSELTFPDDSICTGTSSGNQVNLTIRGLRAMDTGLYICKVEQMYPPPYLLGIGNGTQIYVIDPEPCPDSDGSGGGGSEPKSSDKTHTCPPCPAPEAEGAPSVFLFPPKPKDTLMISRTPEVTCVVVDVSHEDPEVKFNWYVDGVEVHNAKTKPREEQYNSTYRVVSVLTVLHQDWLNGKEYKCKVSNKALPAPIEKTISKAKGQPREPQVYTLPPSRDELTKNQVSLTCLVKGFYPSDIAVEWESNGQPENNYKTTPPVLDSDGSFFLYSKLTVDKSRWQQGNVFSCSVMHEALHNHYTQKSLSLSPGGGGGSGGGGSLQMAGQCSQNEYFDSLLHACIPCQLRCSSNTPPLTCQRYCNASVTNSVKGTNA
IC50 (nM) BAFF (recombinant human BAFF): 33.5 nM
IC50 BAFF (Δ Parental vTD) (recombinant human BAFF): 0.8 ratio
IC50 (nM) APRIL (recombinant human APRIL): 0.809 nM
IC50 APRIL (Δ Parental vTD) (recombinant human APRIL): 0 ratio

B6: CTLA-4 165 GSG4S Fc (G4S)2 BCMA 357 (Fc fusion)
chain: KAMHVAQPAVVLASSRGIASFVCEYASPGKATEVRVTVLRQADSQVTEVCAASYMMGNELTFPDDSICTGTSSGNQVNLTIQGLRAMDTGLYICKVEQMYPPPYYLGIGNGTQIYVIDPEPCPDSDGSGGGGSEPKSSDKTHTCPPCPAPEAEGAPSVFLFPPKPKDTLMISRTPEVTCVVVDVSHEDPEVKFNWYVDGVEVHNAKTKPREEQYNSTYRVVSVLTVLHQDWLNGKEYKCKVSNKALPAPIEKTISKAKGQPREPQVYTLPPSRDELTKNQVSLTCLVKGFYPSDIAVEWESNGQPENNYKTTPPVLDSDGSFFLYSKLTVDKSRWQQGNVFSCSVMHEALHNHYTQKSLSLSPGGGGGSGGGGSLQMAGQCSQNEYFDSLLYACIPCQLRCSSNTPPLTCQRYCNASVTNSVKGTNA
IC50 (nM) BAFF (recombinant human BAFF): 11.8 nM
IC50 BAFF (Δ Parental vTD) (recombinant human BAFF): 2.2 ratio
IC50 (nM) APRIL (recombinant human APRIL): 0.606 nM
IC50 APRIL (Δ Parental vTD) (recombinant human APRIL): 0.9 ratio

B7: CTLA-4 113 GSG4S Fc (G4S)4 TACI 535 (68-110) (Fc fusion)
chain: KAMHVAQPAVVFASSHGIASFVCEYASPWKATEVRVTVLRQADSQVTEVCAATYMTGNELTFLDDSICTGTSSGNQVNLTIQGLRAMDTGLYICKVEQMYPPPYLLGIGNGTQIYVIDPEPCPDSDGSGGGGSEPKSSDKTHTCPPCPAPEAEGAPSVFLFPPKPKDTLMISRTPEVTCVVVDVSHEDPEVKFNWYVDGVEVHNAKTKPREEQYNSTYRVVSVLTVLHQDWLNGKEYKCKVSNKALPAPIEKTISKAKGQPREPQVYTLPPSRDELTKNQVSLTCLVKGFYPSDIAVEWESNGQPENNYKTTPPVLDSDGSFFLYSKLTVDKSRWQQGNVFSCSVMHEALHNHYTQKSLSLSPGGGGGSGGGGSGGGGSGGGGSSLSCRKEQGKFYDHLLGDCISCASICGQHPKQCAYFCENKLRS
IC50 (nM) BAFF (recombinant human BAFF): 0.506 nM
IC50 BAFF (Δ Parental vTD) (recombinant human BAFF): 0.4 ratio
IC50 (nM) APRIL (recombinant human APRIL): 8.63 nM

B8: TACI 528 (EAAAK)6 CTLA 4 668 (other)
chain: SLSCRKEQGKFYDHLLRDCISCASICGQHPKQCAYFCENKLRSEAAAKEAAAKEAAAKEAAAKEAAAKEAAAKKAMHVAQPAVVLASSRGIASFVCEYASPGKATEVRVTVLRQADSQVTEVCAATYMMGNELTFLDDSICTGTSSGNQVNLTIQGLRAMDTGLYICKVELMYPPPYYLGIGNGTQIYVIDPEPSPDSDQDYKDDDDKHHHHHH
IC50 (nM) BAFF (recombinant human BAFF): 5.18 nM
IC50 BAFF (Δ Parental vTD) (recombinant human BAFF): 2 ratio

B9: TACI 516 (EAAAK)6 CTLA 4 668 (other)
chain: VAMRSCPEEQYWDPLLGTCMSCKTICNHQSQRTCAAFCRSLSCRKEQGKFYDHLLRDCISCASICGQHPKQCAYFCENKLRSEAAAKEAAAKEAAAKEAAAKEAAAKEAAAKKAMHVAQPAVVLASSRGIASFVCEYASPGKATEVRVTVLRQADSQVTEVCAATYMMGNELTFLDDSICTGTSSGNQVNLTIQGLRAMDTGLYICKVELMYPPPYYLGIGNGTQIYVIDPEPSPDSDQDYKDDDDKHHHHHH
IC50 (nM) BAFF (recombinant human BAFF): 3.42 nM
IC50 BAFF (Δ Parental vTD) (recombinant human BAFF): 1.3 ratio
IC50 (nM) APRIL (recombinant human APRIL): 138 nM
IC50 APRIL (Δ Parental vTD) (recombinant human APRIL): 15 ratio

B10: CTLA 4 165 GSG4S Fc (G4S)2 TACI 516 (Fc fusion)
chain: KAMHVAQPAVVLASSRGIASFVCEYASPGKATEVRVTVLRQADSQVTEVCAASYMMGNELTFPDDSICTGTSSGNQVNLTIQGLRAMDTGLYICKVEQMYPPPYYLGIGNGTQIYVIDPEPCPDSDGSGGGGSEPKSSDKTHTCPPCPAPEAEGAPSVFLFPPKPKDTLMISRTPEVTCVVVDVSHEDPEVKFNWYVDGVEVHNAKTKPREEQYNSTYRVVSVLTVLHQDWLNGKEYKCKVSNKALPAPIEKTISKAKGQPREPQVYTLPPSRDELTKNQVSLTCLVKGFYPSDIAVEWESNGQPENNYKTTPPVLDSDGSFFLYSKLTVDKSRWQQGNVFSCSVMHEALHNHYTQKSLSLSPGGGGGSGGGGSVAMRSCPEEQYWDPLLGTCMSCKTICNHQSQRTCAAFCRSLSCRKEQGKFYDHLLRDCISCASICGQHPKQCAYFCENKLRS
IC50 (nM) BAFF (recombinant human BAFF): 0.928 nM
IC50 BAFF (Δ Parental vTD) (recombinant human BAFF): 0.5 ratio
IC50 (nM) APRIL (recombinant human APRIL): 4.64 nM
IC50 APRIL (Δ Parental vTD) (recombinant human APRIL): 0.9 ratio

B11: CTLA 4 92 GSG4S Fc (G4S)2 TACI 516 (Fc fusion)
chain: KAMHVAQPAVVLASSRGIASFVCEYASPWKATEVRVTVLRQADSQVTEVCAATYMMGSELTFPDDSICTGTSSGNQVNLTIRGLRAMDTGLYICKVEQMYPPPYLLGIGNGTQIYVIDPEPCPDSDGSGGGGSEPKSSDKTHTCPPCPAPEAEGAPSVFLFPPKPKDTLMISRTPEVTCVVVDVSHEDPEVKFNWYVDGVEVHNAKTKPREEQYNSTYRVVSVLTVLHQDWLNGKEYKCKVSNKALPAPIEKTISKAKGQPREPQVYTLPPSRDELTKNQVSLTCLVKGFYPSDIAVEWESNGQPENNYKTTPPVLDSDGSFFLYSKLTVDKSRWQQGNVFSCSVMHEALHNHYTQKSLSLSPGGGGGSGGGGSVAMRSCPEEQYWDPLLGTCMSCKTICNHQSQRTCAAFCRSLSCRKEQGKFYDHLLRDCISCASICGQHPKQCAYFCENKLRS
IC50 (nM) BAFF (recombinant human BAFF): 1.73 nM
IC50 BAFF (Δ Parental vTD) (recombinant human BAFF): 1 ratio
IC50 (nM) APRIL (recombinant human APRIL): 6.75 nM
IC50 APRIL (Δ Parental vTD) (recombinant human APRIL): 1.3 ratio

B12: TACI 528 (G4S)3 CTLA 4 668 (other)
chain: SLSCRKEQGKFYDHLLRDCISCASICGQHPKQCAYFCENKLRSGGGGSGGGGSGGGGSKAMHVAQPAVVLASSRGIASFVCEYASPGKATEVRVTVLRQADSQVTEVCAATYMMGNELTFLDDSICTGTSSGNQVNLTIQGLRAMDTGLYICKVELMYPPPYYLGIGNGTQIYVIDPEPSPDSDQDYKDDDDKHHHHHH
IC50 (nM) BAFF (recombinant human BAFF): 8.41 nM
IC50 BAFF (Δ Parental vTD) (recombinant human BAFF): 3.3 ratio
